Measurements as given in paper PMC9427789, “Prediction of the structural interface between fibroblast growth factor23 and Burosumab using alanine scanning and molecular docking” (Scientific Reports, 2022).
Positions count from the first letter of the chain named. Names may count otherwise. One block for each binder: values may come before it.

Assays:
Conditions in all cases: both partners purified
[1] = biological target: T1, His-SUMO-FGF23 (N-terminal domain of human FGF23, wild type) (Homo sapiens, UniProt Q9GZV9); assay: ELISA; spot-check ELISA: FGF23 coated at 2 µg/mL on Maxisorp plates (4 °C overnight), Burosumab or its alanine mutants at two concentrations (0.04 and 1.2 µg/mL), room temperature 2 h, anti-human IgG H&L-HRP, A450; fold change from A450 against wild-type Burosumab
T1 construct: FGF23, human, N-terminal domain; also called wild-type FGF23; source: E. coli BL21(DE3), purified (Ni-NTA); not shown: His, N-terminal, kept; SUMO, N-terminal, kept
T1 sequence (Q9GZV9 25-204): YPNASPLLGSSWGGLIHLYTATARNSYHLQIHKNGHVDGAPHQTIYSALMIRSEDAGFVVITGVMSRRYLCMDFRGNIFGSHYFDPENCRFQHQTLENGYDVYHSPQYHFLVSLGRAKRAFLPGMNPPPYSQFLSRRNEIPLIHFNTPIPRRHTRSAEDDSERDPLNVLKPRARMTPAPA

[2] = biological target: T2, His-SUMO-FGF23 R160A-R161A (N-terminal domain of human FGF23) (Homo sapiens, UniProt Q9GZV9, R160A | R161A); assay: ELISA; indirect ELISA: FGF23 or its mutants coated at 2 µg/mL on Maxisorp plates (4 °C overnight), Burosumab or its variants three-fold serially diluted in PBS from 9 µg/mL, room temperature 2 h, anti-human IgG H&L-HRP, A450; fold change from Kd values against the wild type
T2 construct: FGF23, human, N-terminal domain; also called combined R160A and R161A; double alanine mutant; source: E. coli BL21(DE3), purified (Ni-NTA); not shown: His, N-terminal, kept; SUMO, N-terminal, kept
T2 sequence (Q9GZV9 25-204 R160A/R161A): as the sequence (Q9GZV9 25-204) above, with R136A, R137A counted along it

[3] = biological target: T3, His-SUMO-FGF23 Y124A (N-terminal domain of human FGF23) (Homo sapiens, UniProt Q9GZV9, Y124A); assay: as above
T3 construct: FGF23, human, N-terminal domain; source: E. coli BL21(DE3), purified (Ni-NTA); not shown: His, N-terminal, kept; SUMO, N-terminal, kept
T3 sequence (Q9GZV9 25-204 Y124A): as the sequence (Q9GZV9 25-204) above, with Y100A counted along it

[4] = biological target: T4, His-SUMO-FGF23 H117A (N-terminal domain of human FGF23) (Homo sapiens, UniProt Q9GZV9, H117A); assay: as above
T4 construct: FGF23, human, N-terminal domain; source: E. coli BL21(DE3), purified (Ni-NTA); not shown: His, N-terminal, kept; SUMO, N-terminal, kept
T4 sequence (Q9GZV9 25-204 H117A): as the sequence (Q9GZV9 25-204) above, with H93A counted along it

[5] = biological target: T1, His-SUMO-FGF23 (N-terminal domain of …); assay: as above

B2: Burosumab VH:V97A (antibody, V domains shown)
VH: QVQLVQSGAEVKKPGASVKVSCKASGYTFTNHYMHWVRQAPGQGLEWMGIINPISGSTSNAQKFQGRVTMTRDTSTSTVYMELSSLRSEDTAVYYCARDIADAFDFWGQGTMVTVSS
VL: AIQLTQSPSSLSASVGDRVTITCRASQGISSALVWYQQKPGKAPKLLIYDASSLESGVPSRFSGSGSGTDFTLTISSLQPEDFATYYCQQFNDYFTFGPGTKVDIK
notes: as the heavy chain of m1; as the light chain of m1; source: HEK293-F FreeStyle, transiently transfected, purified (Protein A agarose)
fold improvement of binding affinity against wild-type Burosumab [1]: 1.2 fold

B3: Burosumab variant with combined VH:V97A and VL:A32S mutations (antibody, V domains shown)
VH: B2 VH
VL: B2 VL with A32S
notes: as the heavy chain of m1; as the light chain of m1; also called combined Burosumab variant; double mutant; source: HEK293-F FreeStyle, transiently transfected, purified (Protein A agarose)
fold improvement of binding against wild-type Burosumab [5]: 3.7 fold

B4: Burosumab VL:A32S (antibody, V domains shown)
VH: B2 VH with A101V
VL: B2 VL with A32S
notes: as for B2
fold improvement of binding affinity against wild-type Burosumab [5]: 1.6 fold

B5: Burosumab VH:D98A (antibody, V domains shown)
VH: B2 VH with A101V, D102A
VL: B2 VL
notes: as for B2
fold decrease in binding against wild-type Burosumab [1]: 2.62 fold

B7: Burosumab VL:F96A (antibody, V domains shown)
VH: B2 VH with A101V
VL: B2 VL with F95A
notes: as the heavy chain of m1; as the light chain of m1; also called F96A (LCDR3); source: HEK293-F FreeStyle, transiently transfected, purified (Protein A agarose)
fold decrease in binding against wild-type Burosumab [1]: 2.32 fold

More lines, now with the values ahead:

binding result [1]: binds | fold decrease in binding against wild-type FGF23 [2]: 7 fold | fold decrease in binding against wild-type FGF23 [3]: ~50 fold | fold decrease in binding against wild-type FGF23 [4]: > 100 fold
B1: Burosumab (wild type) (antibody, V domains shown)
VH: B2 VH with A101V
VL: B2 VL
notes: heavy chain of Burosumab; light chain of Burosumab; Whole antibody, detected with anti-human IgG H&L. The results say HEK293T, the methods HEK293-F FreeStyle; Residue numbers are Chothia; also called Crysvita; WT Burosumab; source: HEK293-F FreeStyle, transiently transfected, purified (Protein A agarose)

binding result [1]: no binding | fold decrease in binding against wild-type Burosumab [1]: > 100 fold
B6: Burosumab VL:D50A (antibody, V domains shown)
VH: B2 VH with A101V
VL: B2 VL with D50A
notes: as the heavy chain of m1; as the light chain of m1; also called D50A (LCDR2); source: HEK293-F FreeStyle, transiently transfected, purified (Protein A agarose)
